The target in experiment [1] is T1, rat calcitonin receptor (rat, UniProt P32214 25-516).
T1 construct: whole, on cells; Membranes of transiently transfected BHK tk'ts 13 cells; also called rCTR; rat calcitonin (a) receptor
T1 sequence (looked up): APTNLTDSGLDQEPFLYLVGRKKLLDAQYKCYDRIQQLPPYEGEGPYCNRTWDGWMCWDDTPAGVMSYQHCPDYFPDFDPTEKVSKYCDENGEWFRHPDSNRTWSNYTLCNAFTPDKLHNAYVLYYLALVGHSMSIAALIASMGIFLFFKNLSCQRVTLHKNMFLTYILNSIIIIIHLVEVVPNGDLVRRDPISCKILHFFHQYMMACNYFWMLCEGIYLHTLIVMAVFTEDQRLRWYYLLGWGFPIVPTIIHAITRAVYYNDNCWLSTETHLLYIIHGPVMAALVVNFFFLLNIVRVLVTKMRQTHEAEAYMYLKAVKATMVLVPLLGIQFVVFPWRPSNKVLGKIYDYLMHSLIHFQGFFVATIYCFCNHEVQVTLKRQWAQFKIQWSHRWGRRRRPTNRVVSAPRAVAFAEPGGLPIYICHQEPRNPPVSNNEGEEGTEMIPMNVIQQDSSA
The experiment can be described thus: SPA competition with 125I-calcitonin on membranes of BHK tk'ts 13 cells with rat calcitonin receptor (Assay VIII).

Experiment [2] concerns the target T2, human calcitonin receptor (human, UniProt P30988 25-474).
T2 construct: whole, on cells; Membranes of stably transfected cells; also called hCTR; hCT
T2 sequence (looked up): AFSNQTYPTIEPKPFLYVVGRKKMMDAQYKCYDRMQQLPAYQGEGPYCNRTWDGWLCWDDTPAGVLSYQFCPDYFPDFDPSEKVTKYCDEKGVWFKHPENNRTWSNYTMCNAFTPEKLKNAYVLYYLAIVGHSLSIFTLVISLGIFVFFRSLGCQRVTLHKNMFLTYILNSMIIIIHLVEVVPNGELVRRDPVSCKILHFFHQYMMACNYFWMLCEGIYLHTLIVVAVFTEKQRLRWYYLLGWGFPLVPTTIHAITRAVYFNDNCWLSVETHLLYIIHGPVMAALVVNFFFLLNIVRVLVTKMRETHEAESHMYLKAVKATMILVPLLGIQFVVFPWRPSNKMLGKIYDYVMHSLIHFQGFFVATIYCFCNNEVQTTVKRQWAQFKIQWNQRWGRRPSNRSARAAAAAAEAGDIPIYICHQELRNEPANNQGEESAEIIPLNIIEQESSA
The experiment can be described thus: ratio of IC50 on human calcitonin receptor to IC50 on human amylin receptor (reference m42), SPA competition. The gist of the method: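 Competition binding by SPA with cell membranes (35 ng/μL) and SPA beads in 50 mM Hepes pH 7.4 with 1 mM CaCl2, 5 mM MgCl2, 0.1% OA and 0.02% Tween20. Incubated 120 min at 25 °C with shaking, then counted.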

Experiment [3] addresses T3, rat amylin receptor (rat calcitonin receptor + rat RAMP 3) (rat, UniProt P32214 25-516; Q9JJ73 23-147).
T3 construct: whole, on cells; Membranes of transiently transfected BHK tk'ts 13 cells; also called rAmylin-R; rat amylin 3(a) receptor
T3 sequence (looked up) 1: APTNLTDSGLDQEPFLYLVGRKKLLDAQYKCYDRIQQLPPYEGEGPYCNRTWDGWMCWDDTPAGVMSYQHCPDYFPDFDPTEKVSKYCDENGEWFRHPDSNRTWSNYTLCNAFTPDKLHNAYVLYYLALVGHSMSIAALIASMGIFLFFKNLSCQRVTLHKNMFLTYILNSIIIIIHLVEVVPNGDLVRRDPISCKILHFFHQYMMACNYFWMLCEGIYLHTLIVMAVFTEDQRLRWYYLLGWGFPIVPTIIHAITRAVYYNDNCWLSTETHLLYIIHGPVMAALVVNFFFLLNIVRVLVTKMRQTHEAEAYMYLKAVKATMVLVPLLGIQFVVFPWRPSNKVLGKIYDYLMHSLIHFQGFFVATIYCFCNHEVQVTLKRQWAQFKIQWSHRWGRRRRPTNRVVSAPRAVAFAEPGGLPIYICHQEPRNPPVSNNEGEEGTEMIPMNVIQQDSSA
T3 sequence (looked up) 2: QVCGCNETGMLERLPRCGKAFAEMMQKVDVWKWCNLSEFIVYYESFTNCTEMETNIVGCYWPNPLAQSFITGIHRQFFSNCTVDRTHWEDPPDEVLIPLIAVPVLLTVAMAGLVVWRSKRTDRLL
The experiment can be described thus: SPA competition with 125I-rat amylin on membranes of BHK tk'ts 13 cells with rat calcitonin receptor + rat RAMP3 (Assay VI).

Experiment [4] concerns the target T1, rat calcitonin receptor. Put plainly: ratio of IC50 on rat calcitonin receptor to IC50 on rat amylin receptor (reference m40).

Numbered stars: 1 amine (or outer) side, 2 acyl side, 3 side chain; on linkers, the order of the positions; unused ones are H or OH. Bridge positions count the residues as written; N and C are the ends. Side chains are listed from the residue outwards. Ends that are not written are not given here. * marks the point of attachment. C20 diacid = O=C(O)CCCCCCCCCCCCCCCCCCC(=O)*; γGlu = O=C(O)[C@H](CCC(=O)[*:2])N[*:1]

B1: N^-1-[(4S)-4-carboxy-4-(19-carboxynonadecanoylamino)butanoyl]-Gly[Arg1,Ala14,Arg17,Pro21,Pro27,Pro34]-h-amylin (peptide)
peptide: {C20 diacid-γGlu}-GRCNTATCATQRLAAFLRHSSPNFGAIPSSTNVGPNTY-NH2
modifications: disulfide 3-8
notes: Synthetic acylated analogue of human amylin, extended by Gly at position -1
Consider B1, for which the IC50 in the experiment with rat calcitonin receptor [1] turned out to be 56.3 nM; in experiment [3], 0.436 nM. In addition, the “Ratio hCT/hAmylin binding” value in experiment [2] worked out at 26.5. Besides, the “Ratio rCT/rAmylin binding” value in the experiment with rat calcitonin receptor [4] worked out at 129.

B2: N{-1}-[(4S)-4-carboxy-4-(19-carboxynonadecanoylamino)butanoyl]-Gly[Arg1,His14,Arg17,Pro21,Pro27]-h-amylin (peptide)
peptide: {C20 diacid-γGlu}-GRCNTATCATQRLAHFLRHSSPNFGAIPSSTNVGSNTY-NH2
modifications: disulfide 3-8
SMILES: CC[C@H](C)[C@H](NC(=O)[C@H](C)NC(=O)CNC(=O)[C@H](Cc1ccccc1)NC(=O)[C@H](CC(N)=O)NC(=O)[C@@H]1CCCN1C(=O)[C@H](CO)NC(=O)[C@H](CO)NC(=O)[C@H](Cc1c[nH]cn1)NC(=O)[C@H](CCCNC(=N)N)NC(=O)[C@H](CC(C)C)NC(=O)[C@H](Cc1ccccc1)NC(=O)[C@H](Cc1c[nH]cn1)NC(=O)[C@H](C)NC(=O)[C@H](CC(C)C)NC(=O)[C@H](CCCNC(=N)N)NC(=O)[C@H](CCC(N)=O)NC(=O)[C@@H](NC(=O)[C@H](C)NC(=O)[C@@H]1CSSC[C@H](NC(=O)[C@H](CCCNC(=N)N)NC(=O)CNC(=O)CC[C@H](NC(=O)CCCCCCCCCCCCCCCCCCC(=O)O)C(=O)O)C(=O)N[C@@H](CC(N)=O)C(=O)N[C@@H]([C@@H](C)O)C(=O)N[C@@H](C)C(=O)N[C@@H]([C@@H](C)O)C(=O)N1)[C@@H](C)O)C(=O)N1CCC[C@H]1C(=O)N[C@@H](CO)C(=O)N[C@@H](CO)C(=O)N[C@H](C(=O)N[C@@H](CC(N)=O)C(=O)N[C@H](C(=O)NCC(=O)N[C@@H](CO)C(=O)N[C@@H](CC(N)=O)C(=O)N[C@H](C(=O)N[C@@H](Cc1ccc(O)cc1)C(N)=O)[C@@H](C)O)C(C)C)[C@@H](C)O
notes: Synthetic acylated analogue of human amylin, extended by Gly at position -1; also called compound 99
Take B2: the 50% inhibitory concentration (IC50) with rat calcitonin receptor [1] was determined as 216 nM; in experiment [3], 2.7 nM. Moreover, the “Ratio hCT/hAmylin binding” value in experiment [2] came out at 100. Moreover, the “Ratio rCT/rAmylin binding” value in the experiment with rat calcitonin receptor [4] stood at 79.8.

B3: N^-1-[(4S)-4-carboxy-4-(19-carboxynonadecanoylamino)butanoyl]-Gly[Arg1,His14,Arg17,Pro21,Pro27,Pro34]-h-amylin (peptide)
peptide: {C20 diacid-γGlu}-GRCNTATCATQRLAHFLRHSSPNFGAIPSSTNVGPNTY-NH2
modifications: disulfide 3-8
SMILES: CC[C@H](C)[C@H](NC(=O)[C@H](C)NC(=O)CNC(=O)[C@H](Cc1ccccc1)NC(=O)[C@H](CC(N)=O)NC(=O)[C@@H]1CCCN1C(=O)[C@H](CO)NC(=O)[C@H](CO)NC(=O)[C@H](Cc1c[nH]cn1)NC(=O)[C@H](CCCNC(=N)N)NC(=O)[C@H](CC(C)C)NC(=O)[C@H](Cc1ccccc1)NC(=O)[C@H](Cc1c[nH]cn1)NC(=O)[C@H](C)NC(=O)[C@H](CC(C)C)NC(=O)[C@H](CCCNC(=N)N)NC(=O)[C@H](CCC(N)=O)NC(=O)[C@@H](NC(=O)[C@H](C)NC(=O)[C@@H]1CSSC[C@H](NC(=O)[C@H](CCCNC(=N)N)NC(=O)CNC(=O)CC[C@H](NC(=O)CCCCCCCCCCCCCCCCCCC(=O)O)C(=O)O)C(=O)N[C@@H](CC(N)=O)C(=O)N[C@@H]([C@@H](C)O)C(=O)N[C@@H](C)C(=O)N[C@@H]([C@@H](C)O)C(=O)N1)[C@@H](C)O)C(=O)N1CCC[C@H]1C(=O)N[C@@H](CO)C(=O)N[C@@H](CO)C(=O)N[C@H](C(=O)N[C@@H](CC(N)=O)C(=O)N[C@H](C(=O)NCC(=O)N1CCC[C@H]1C(=O)N[C@@H](CC(N)=O)C(=O)N[C@H](C(=O)N[C@@H](Cc1ccc(O)cc1)C(N)=O)[C@@H](C)O)C(C)C)[C@@H](C)O
notes: as for B1
In the case of B3, the values for the IC50 (with rat calcitonin receptor [1]; in experiment [3]) were 65.9 nM and 0.674 nM, respectively. In experiment [2], the “Ratio hCT/hAmylin binding” value was 36.2. For the same molecule, the “Ratio rCT/rAmylin binding” value in the experiment with rat calcitonin receptor [4] was 97.7.

B4: N^ε1-[(4S)-4-carboxy-4-(19-carboxynonadecanoylamino)butanoyl]-[Glu14,Arg17,Pro21,Pro27,Pro34,Glu35]-h-amylin (peptide)
peptide: K([γGlu-C20 diacid])CNTATCATQRLAEFLRHSSPNFGAIPSSTNVGPETY-NH2
modifications: disulfide 2-7; N-terminus assumed
SMILES: CC[C@H](C)[C@H](NC(=O)[C@H](C)NC(=O)CNC(=O)[C@H](Cc1ccccc1)NC(=O)[C@H](CC(N)=O)NC(=O)[C@@H]1CCCN1C(=O)[C@H](CO)NC(=O)[C@H](CO)NC(=O)[C@H](Cc1c[nH]cn1)NC(=O)[C@H](CCCNC(=N)N)NC(=O)[C@H](CC(C)C)NC(=O)[C@H](Cc1ccccc1)NC(=O)[C@H](CCC(=O)O)NC(=O)[C@H](C)NC(=O)[C@H](CC(C)C)NC(=O)[C@H](CCCNC(=N)N)NC(=O)[C@H](CCC(N)=O)NC(=O)[C@@H](NC(=O)[C@H](C)NC(=O)[C@@H]1CSSC[C@H](NC(=O)[C@@H](N)CCCCNC(=O)CC[C@H](NC(=O)CCCCCCCCCCCCCCCCCCC(=O)O)C(=O)O)C(=O)N[C@@H](CC(N)=O)C(=O)N[C@@H]([C@@H](C)O)C(=O)N[C@@H](C)C(=O)N[C@@H]([C@@H](C)O)C(=O)N1)[C@@H](C)O)C(=O)N1CCC[C@H]1C(=O)N[C@@H](CO)C(=O)N[C@@H](CO)C(=O)N[C@H](C(=O)N[C@@H](CC(N)=O)C(=O)N[C@H](C(=O)NCC(=O)N1CCC[C@H]1C(=O)N[C@@H](CCC(=O)O)C(=O)N[C@H](C(=O)N[C@@H](Cc1ccc(O)cc1)C(N)=O)[C@@H](C)O)C(C)C)[C@@H](C)O
notes: Synthetic acylated analogue of human amylin
For B4, the half-inhibitory concentration (IC50) came out at 10.4 nM in the experiment with rat calcitonin receptor [1] and 0.164 nM in experiment [3]. Moreover, the “Ratio hCT/hAmylin binding” value in experiment [2] turned out to be 13.3. Moreover, in the experiment with rat calcitonin receptor [4], the “Ratio rCT/rAmylin binding” value is 63.2.

Source of the values: patent US20140087995A1 (published 2014).
